Assay results: US20200291118A1
Read-outs that look alike come from different tables or passages of the source.

Molecular target: hPD-1-hIgGFc antigen (human), Q15116
Assay: ELISA on coated hPD-1-hIgGFc, ligand PD-L2-his tag 0.3 µg/ml detected; no antibody (row 'blank' under HX009-5)

Sequence of hPD-1-hIgGFc antigen (human), Q15116 (Q15116 25-167 limits assumed): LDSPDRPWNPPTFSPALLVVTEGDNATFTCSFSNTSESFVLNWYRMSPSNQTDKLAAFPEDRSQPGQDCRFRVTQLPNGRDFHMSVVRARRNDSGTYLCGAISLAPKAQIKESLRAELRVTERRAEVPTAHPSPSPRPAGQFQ

absorbance at 450 nm: 1.1
absorbance at 450 nm (remark: other sources report otherwise): 1.09
B1: PD-L2-his tag, Q9BQ51 20-220 (ligand, UniProt Q9BQ51 20-220, looked up, not shown: small tags and cut ends)
chain: LFTVTVPKELYIIEHGSNVTLECNFDTGSHVNLGAITASLQKVENDTSPHRERATLLEEQLPLGKASFHIPQVQVRDEGQYQCIIIYGVAWDYKYLTLKVKASYRKINTHILKVPETDEVELTCQATGYPLAEVSWPNVSVPANTSHSRTPEGLYQVTSVLRLKPPPGRNFSCVFWNTHVRELTLASIDLQSQMEPRTHPT
